Reference: patent US7888090B2, “Mutants of O6-alkylguanine-DNA alkyltransferase” (Ecole Polytechnique Federale de Lausanne, priority 2004, dated 2011)

Tests used:
[1] = Activity assay with biotinylated O^6-benzylguanine (BG-Bt), Western blotting; type: biochemical; conditions: statement in words
In short: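 Purified mutant GST-AGT (0.2 μM) reacted with 1 μM biotinylated O^6-benzylguanine in 50 mM HEPES pH 7.2, 1 mM DTT at room temperature. Time-point aliquots quenched with O^6-benzylguanine in SDS buffer. Biotinylated protein detected by Western blot with neutravidin-peroxidase, band intensity quantified.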

[2] = Solubility in vitro after overnight incubation; type: physicochemical; conditions: compared to wild type AGT
Protocol: The in vitro solubility of wild type AGT and the AGT mutant is measured by determining the amount of protein that remains in the soluble fraction after overnight incubation of purified samples at 4° C. or up to 37° C. at one or several concentrations established in a suitable buffer (e.g. 100 mM NaCl, 20 mM Tris, pH 8.0, 20% glycerol, 1 mM DTT).
The solubility of AGTM or an AGTM fusion protein in vitro is measured by determining the amount of protein that remains in the soluble fraction after overnight incubation of purified samples at 4 or up to 37° C. at one or several concentrations established in a suitable buffer (e.g. 100 mM NaCl, 20 mM Tris, pH 8.0, 20% Glycerol), and it is compared to that of wild type AGT or to known AGT mutants such as “PGEG-hAGT” (Juillerat et al., Chem Biol 10:313-317, 2003).

[3] = Stability after reaction with BG-FL; type: physicochemical
Protocol: Stability before reaction is determined for the mutant AGT or for a mutant AGT fusion protein by incubating purified samples in buffered aqueous solution for up to two weeks at 4° C. and up to six months at −20° C. At several time points, aliquots are taken and concentration of reactive AGT is estimated as described by Juillerat et al., Chem Biol 10:313-317, 2003. Stability for wild type AGT and the AGT mutant after reaction with a labelled substrate and after subsequent separation from unreacted substrate is determined by quantifying the concentration of the label in the soluble fraction over up to two weeks at 4° C. and up to three months at −20° C.
Stability after reaction: The vector pBAD/H is A (Invitrogen) is modified by cloning synthetic oligonucleotides (SEQ ID NO:29 and SEQ ID NO:30) between the NcoI and HindIII sites to include a 12×His-tag and SbfI and AscI cloning sites. The gene of AGTM is amplified with primers SEQ ID NO:31 and SEQ ID NO:32 and cloned between the SbfI/AscI sites into this vector. Wild type AGT and mutant AGT (Lys125Ala, Ala127Thr, Arg128Ala, Asn157Gly, Ser159Glu) are amplified with primers SEQ ID NO:31 and SEQ ID NO:33 and cloned into this vector. Protein expression is carried out in E. coli strain Top 10. An exponentially growing culture is induced with 0.2% arabinose, and the expression is carried out for 16 hours at 28° C. The cells are lysed by adding buffer to 10 ml/g containing 0.5 M NaCl, 80 mM imidazole, 1% Triton, 250 µM PMSF, 1 mM […]-mercaptoethanol, 5 mg/ml lysozyme, 20 µg/ml DNase and stirring for 45 min. […]
The AGT proteins at 10 µM) are quantitatively reacted with fluorescein-modified O^6-benzyl-guanine (substance 5 of Juillerat et al, Chem Biol 10:313-317, 2003, BG-FL, 20 µM) and purified over a size exclusion column (Econopac 10 DG, Bio-Rad) and incubated for 7 days. […] The fluorescence of the supernatant is measured with a Victor2 fluorescence plate reader (Perkin Elmer, excitation/emission at 485/535 nm).

B1: AGTM: AGT mutant Cys62Ala, Gln115Ser, Gln116His, Lys125Ala, Ala127Thr, Arg128Ala, Gly131Lys, Gly132Thr, Met134Leu, Arg135Ser, Cys150Asn, Ser151Ile, Ser152Asn, Asn157Gly, Ser159Glu, truncated after … (protein, UniProt P16455 1-207, looked up, variant C62A Q115S Q116H K125A A127T R128A G131K G132T M134L R135S C150N S151I S152N N157G S159E del183-207)
Methylated-DNA--protein-cystei …: MDKDCEMKRTTLDSPLGKLELSGCEQGLHEIKLLGKGTSAADAVEVPAPAAVLGGPEPLMQATAWLNAYFHQPEAIEEFPVPALHHPVFQQESFTRQVLWKLLKVVKFGEVISYSHLAALAGNPAATAAVKTALSGNPVPILIPCHRVVNINGAVGGYEGGLAVKEWLLAHEGHRLGKPGLG
modifications: His tag
activity towards O^6-benzylguanine substrates [1]: retains the reactivity | activity towards O^6-benzylguanine substrates ([1]; Gln115Ser, Gln116His, Lys125Ala, Ala127Thr, Arg128Ala, Gly131Lys, Gly1): increased reactivity | solubility in vitro [2]: at least fourfold increased | time labeled protein remains stable in solution [3]: over 7 days
